In PMC9263355, “Galectin-3 Decreases 4-1BBL Bioactivity by Crosslinking Soluble and Membrane Expressed 4-1BB” (Frontiers in Immunology, 2022):

Molecular target: T1, recombinant human (rh)4-1BB Fc chimera protein (human, UniProt Q07011 24-186)
T1 construct: human 4-1BB (CD137/TNFRSF9), the part of it in the R&D Systems Fc chimera; Glycosylated; also called CD137; TNFRSF9; source: bought: R&D Systems
Assay: fluorescence polarisation; fluorescence anisotropy in solution, by inhibition: fixed galectin (0.2-2.5 µM) with 0.02 µM of its fluorescent probe, in the presence of 0.07-4.75 µM (rh)4-1BB Fc or (rh)IgG1 Fc; average Kd from the points with ≥ 15% inhibition
Details: both partners purified

T1 sequence (Q07011 24-186, change not shown): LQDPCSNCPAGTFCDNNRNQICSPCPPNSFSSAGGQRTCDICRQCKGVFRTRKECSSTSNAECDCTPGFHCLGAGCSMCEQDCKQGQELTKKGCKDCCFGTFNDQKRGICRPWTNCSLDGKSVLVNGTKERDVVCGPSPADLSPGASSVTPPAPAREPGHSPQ

- Kd: 6.12 µM
B1: recombinant human galectin-2 (natural protein, UniProt P05162 1-132, looked up)
chain: MTGELEVKNMDMKPGSTLKITGSIADGTDGFVINLGQGTDKLNLHFNPRFSESTIVCNSLDGSNWGQEQREDHLCFSPGSEVKFTVTFESDKFKVKLPDGHELTFPNRLGHSHLSYLSVRGGFNMSSFKLKE
notes: human galectin-2; also called Gal-2
